Laboratory results published in US5607849.
Like-named read-outs stand apart in the source and are kept apart here.

How the values were obtained:
dimethylated casein [1] = target: dimethylated casein
dimethylated casein [2] = target: dimethylated casein; remark: listed apart in the source
dimethylated casein [3] = target: dimethylated casein; remark: listed apart in the source

Alaska pollack (Theragra chalcogramma) liver-derived transglutaminase, natural enzyme purified from liver (S-Sepharose fraction)
relative activity (fluorescence intensity due to bonding of monodansylcadaverine with dimethylated casein) (units/mg protein) (dimethylated casein [1]): 591

Pagrus major transglutaminase, recombinant (expressed from the cDNA of pSLTG5 by plasmids pIL6TG1 and pTTG2-22 in E. coli HB101 and pYSTG1 in Saccharomyces cerevisiae INVSC2) (enzyme)
Relative fluorescence intensity (bonding of monodansyl cadaverine with dimethylated casein) (relative fluorescence intensity) (dimethylated casein [2]): 910

Pagrus major liver-derived transglutaminase, natural enzyme purified from liver (heparin fraction)
relative activity (fluorescence intensity due to bonding of monodansylcadaverine with dimethylated casein) (units/mg protein) (dimethylated casein [3]): 807
